Measurements taken from US20110274721A1.

Molecular target: gp140ΔCFI B(C-HR2) ext 2F5 (HIV-1 strain HXB2 (clade B); HIV-1 strain BaL (clade B); HIV-1; HIV-1 strain 97ZA012 (clade C)) (UniProt P04578)
Test: ELISA on Env from transfected 293 cells

For monoclonal antibody 2F5, the fold higher reactivity than the parental clade B gp140ΔCFI was 20 to 30 fold.
